Numbering of substitutions follows the chain as printed. Names may count otherwise.
Experiments:
[1] = molecular target: T1, 2M (Thermococcus gorgonarius, UniProt P56689, A485L/D141A/E143A/E664K/F545L/I521L/K592A/T541G/V93Q/Y409G); experiment: Steady-state kinetics of single nucleotide incorporation by 2M; format: biochemical; settings: single nucleotide incorporation from 2′OMe-RNA primer; for improvement of KM value compared to ATP: 50° C.
T1 construct: made in house; host or cells: E. coli BL21 CodonPlus-RIL
Protocol: Steady-state kinetic parameters for NTP incorporation by 2M were determined by performing initial velocity measurements of single incorporations of either ATP, 2′OMe-ATP, or MOE-ATP. To generate the 2′OMe-RNA/DNA substrate, a 20-mer 2′OMe-RNA primer FD was 5′ 6-carboxyfluorescein end-labeled and annealed to the 52-mer DNA template BFL770 (Supplementary Table 1) at a 1:1.2 molar ratio. The reactions were performed at 50° C. in a mixture containing 1× Thermopol buffer, 6 mM Mg^2+, 100 nM 2′OMe-RNA/DNA substrate, and at NTP concentrations ranging from 0.5-250 μM. Enzyme concentrations and reaction times were selected to maintain initial velocity conditions. The 25 μL reactions were stopped by addition of a quenching solution containing 100 mM EDTA, 80% deionized formamide, 0.25 mg/ml bromophenol blue and 0.25 mg/ml xylene cyanol. Moreover, less than 20% of the primers were extended as required for steady-state conditions.
Product and substrate were separated on a 22% denaturing (8 M urea) polyacrylamide gel. The resulting bands were quantified using a Cytiva Typhoon RGB imager in fluorescence mode. Steady-state kinetic parameters (KM, kcat) were determined by fitting the data to the Michaelis-Menten equation. The data are the means and standard error from three independent experiments.

[2] = molecular target: T2, VEGF165 (Homo sapiens, UniProt P15692-4 P15692-4:27-191); experiment: SPR; overall mean +/-29; PBS + 0.1% Tween20, 20 C; double-exponential fit; settings: tags: biotinylated, Bio-Techne, captured on Neutravidin chip; chain copies: 2
Protocol: (§1) 2′OMe/MOE-RNA aptamers were synthesized from RNA primer Prim1 and 3′-biotinylated DNA template Temp_ARC224 (Supplementary Table 1) as described in section “Synthesis of 2′OMezymes for characterization” using 2′OMe/MOE-NTPs. 2′OMe/MOE-RNA aptamers were annealed at 1-10 μM in nuclease-free water by heating to 95° C. for 5 min and equilibrating at RT for 10 min. They were then diluted and analysed in PBS+0.1% (v/v) Tween20 (PBS-Tw). Surface Plasmon Resonance (SPR) measurements were made using a BIAcore 2000 instrument (GE Life Sciences, UK) at a flow rate of 20 μLmin⁻¹ at 20° C. CM4 sensor chip (GE Life Sciences, UK) surfaces were coated with Neutravidin (Pierce 31000, ThermoFisher Scientific, USA) surfaces (˜8000 RU per flow cell) using an amine coupling kit (GE Life Sciences, UK) and flowing in 5 mM NaOAc (sodium acetate), pH 5.5. Chips were equilibrated in PBS Tw and left to flow overnight until signal drift had settled. ˜2000 RU biotinylated human VEGF165 (Bio-Techne, USA) was captured (except for the reference cell) before blocking with excess free biotin. 50 μL aptamer samples at a series of concentrations (500 nM, 250 nM, 125 nM, 62.5 nM, 31.3 nM, 15.6 nM, 7.8 nM, 3.9 nM) were injected for 150 s and dissociation was recorded for 600 s, in PBS-Tw. Single injections of aptamers outside of the concentration series were performed at 100 nM (50 μL) in PBS-Tw. […]

[3] = molecular target: T2, VEGF165; experiment: SPR; overall mean +/-88; PBS + 0.1% Tween20, 20 C; double-exponential fit; settings: tags: biotinylated, Bio-Techne, captured on Neutravidin chip; chain copies: 2
Protocol: as §1

[4] = system: random N40 template Tag3.3-N40-Test2; experiment: Primer extension on random N40 template (denaturing PAGE, densitometry); format: biochemical
Protocol: (§2) Analytical primer extension reactions were carried out in 1× Thermopol buffer (NEB) supplemented with MgSO4 (4 mM). Primer (100 nM) was extended on a template (200 nM) with appropriate nucleoside triphosphates (125-250 μM each) by purified polymerase (10-100 μg/mL) in a 10-μL reaction volume. Reactions were carried out at 65° C. Primer extension products were analysed via urea-PAGE. All extensions with MOE-NTPs on defined-sequence template TempNpure required post-synthesis template capture with a ten-fold excess of antisense template, Turbo DNase (Invitrogen) treatment, subsequent Proteinase K (NEB) treatment, and loading on the urea-PAGE gel with a ten-fold excess of antisense template. Primer extensions with MOE-NTPs on template sfGFP required polymerase concentrations of 500 μg/mL.

[5] = system: template TempNpure; experiment: Primer extension on defined-sequence template (denaturing PAGE); format: biochemical
Protocol: as §2

[6] = system: template sfGFP; experiment: Long-range synthesis of a GFP transcript; format: biochemical; settings: 2′OMe-RNA primer Synth-out1mm
Protocol: as §2

[7] = molecular target: T2, VEGF165; experiment: SPR; overall mean +/-16; PBS + 0.1% Tween20, 20 C; double-exponential fit; settings: tags: biotinylated, Bio-Techne, captured on Neutravidin chip; chain copies: 2
Protocol: as §1

[8] = FIG. 1g, RNA/2′OMe-RNA primer A-Test2, full length +79 nt
[9] = FIG. 3e, 2′OMe-RNA primer A-Test2, full length +79 nt

## CO[C@@H]1[C@H](O)[C@@H](COP(=O)(O)OP(=O)(O)OP(=O)(O)O)O[C@H]1n1cnc2c(N)ncnc21 [2′OMe-ATP]
[1]
  Vmax/kcat values for incorporation: essentially identical
  improvement of KM value compared to ATP: approximately 5 fold

## COCCOC1C(O)C(COP(=O)(O)OP(=O)(O)OP(=O)(O)O)OC1n1cnc2c(N)ncnc21 (stereo not shown) [MOE-ATP]
[1]
  Vmax/kcat values for incorporation: essentially identical
  improvement of KM value compared to ATP: approximately 5 fold

## CGATATGCAGTTTGAGAAGTCGCGCATTCG (XNA, 2'-OMe G and U, 2'-O-MOE A and C) [ARC224 2'OMe-GU MOE-AC]
[2]
  Kd: 30 nM

## CGATATGCAGTTTGAGAAGTCGCGCATTCG (XNA, 2'-OMe U, 2'-O-MOE A, C and G) [ARC224 2'OMe-U MOE-ACG]
[3]
  Kd: 92 nM

B1: TGLLK: Tgo: V93Q, D141A, E143A, Y409G, A485L, I521L, F545L, E664K; previously described parent polymerase (protein, UniProt P56689 1-773, looked up, variant V93Q D141A E143A Y409G A485L I521L F545L E664K)
DNA polymerase: MILDTDYITEDGKPVIRIFKKENGEFKIDYDRNFEPYIYALLKDDSAIEDVKKITAERHGTTVRVVRAEKVKKKFLGRPIEVWKLYFTHPQDQPAIRDKIKEHPAVVDIYEYDIPFAKRYLIDKGLIPMEGDEELKMLAFAIATLYHEGEEFAEGPILMISYADEEGARVITWKNIDLPYVDVVSTEKEMIKRFLKVVKEKDPDVLITYNGDNFDFAYLKKRSEKLGVKFILGREGSEPKIQRMGDRFAVEVKGRIHFDLYPVIRRTINLPTYTLEAVYEAIFGQPKEKVYAEEIAQAWETGEGLERVARYSMEDAKVTYELGKEFFPMEAQLSRLVGQSLWDVSRSSTGNLVEWFLLRKAYERNELAPNKPDERELARRRESYAGGYVKEPERGLWENIVYLDFRSLGPSIIITHNVSPDTLNREGCEEYDVAPQVGHKFCKDFPGFIPSLLGDLLEERQKVKKKMKATIDPIEKKLLDYRQRLIKILANSFYGYYGYAKARWYCKECAESVTAWGRQYLETTIREIEEKFGFKVLYADTDGFLATIPGADAETVKKKAKEFLDYINAKLPGLLELEYEGFYKRGFFVTKKKYAVIDEEDKITTRGLEIVRRDWSEIAKETQARVLEAILKHGDVEEAVRIVKEVTEKLSKYEVPPEKLVIYKQITRDLKDYKATGPHVAVAKRLAARGIKIRPGTVISYIVLKGSGRIGDRAIPFDEFDPAKHKYDAEYYIENQVLPAVERILRAFGYRKEDLRYQKTRQVGLGAWLKPKT
[4]; [8]
  densitometry of N40 synthesis yield, 2′OMe-RNA: 0%
[4]; [9]
  densitometry of N40 synthesis yield, 2′OMe-RNA: 1%
  densitometry of N40 synthesis yield, MOE-RNA: 0%
[5]; denaturing PAGE
  2′OMe-RNA synthesis activity (in words): comparatively inefficient

B2: 2M: Tgo polymerase with V93Q, D141A, E143A, Y409G, A485L, I521L, T541G, F545L, K592A, E664K (SEQ ID NO: 3) (protein)
chain: B1 DNA polymerase with T541G, K592A
[4]; 2′OMe-RNA primer FD-Test2
  time to reach full length synthesis (+79 nt), 2′OMe-RNA: < 10 min
  time to reach full length synthesis (+79 nt), DNA: < 1 min
  time to reach full length synthesis (+79 nt), MOE-RNA: < 30 min
[4]; [8]
  densitometry of N40 synthesis yield, 2′OMe-RNA: 90%
[4]; [9]
  densitometry of N40 synthesis yield, 2′OMe-RNA: 84%
  densitometry of N40 synthesis yield, MOE-RNA: 65%
[5]; 2′OMe-RNA primer FD
  time to reach full length synthesis (+72 nt), 2′OMe-RNA: < 5 min
  time to reach full length synthesis (+72 nt), MOE-RNA: < 20 min
[5]; denaturing PAGE
  2′OMe-RNA synthesis activity (in words): striking increase in 2′OMe-RNA synthesis activity
  MOE-RNA synthesis (in words): able to efficiently synthesize MOE-RNA
[6]
  long-range 2′OMe-RNA synthesis length: 750 nt
  long-range MOE-RNA synthesis length: 750 nt

B3: 3M: Tgo polymerase as 2M but with E664R (SEQ ID NO: 4) (protein)
chain: B1 DNA polymerase with T541G, K592A, K664R
[5]; denaturing PAGE
  2′OMe-RNA synthesis activity (in words): virtually identical synthesis activity

B4: 2M+D614N: 2M polymerase bearing the DGLNK mutation D614N (SEQ ID NO: 5) (protein)
chain: B1 DNA polymerase with T541G, K592A, D614N
[5]; denaturing PAGE
  2′OMe-RNA synthesis activity (in words): small enhancement

## CGATATGCAGTTTGAGAAGTCGCGCATTCG (XNA, all 2'-OMe (A,C,G,U)) [ARC224 2'OMe]
[7]
  Kd: 23 nM

Source: US20250197820A1, “NUCLEIC ACID POLYMERASE AND ITS USE IN PRODUCING NON-DNA NUCLEOTIDE POLYMERS” (UNITED KINGDOM RESEARCH AND INNOVATION, priority 2021, published 2025)
